This is an account of results in article PMC5463365, “Assembly and use of high-density recombinant peptide chips for large-scale ligand screening is a practical alternative to synthetic peptide libraries” (BMC Genomics, 2017).

Entries after “also recorded” stand apart in the source; their conditions may differ. Where no end group is shown, it is not given here.

The target of assay [1] is T1, Streptavidin (Streptomyces avidinii, UniProt P22629).
T1 construct: purchased ForteBio
Nature of the assay: Recombinant peptide chip screen with HRP- or Europium-labeled Streptavidin. The assay is classed as binding. Particulars: for effect of dimerisation on chip signal/affinity: 12 glycine linker spaced dimer versus monomer, HRP-Streptavidin signal. On the procedure: Competent E. coli One Shot® BL21 Star™ (DE3) cells (Thermo Fisher Scientific) carrying the gene for T7 RNA polymerase under control of isopropyl β-D-1-thiogalactopyranoside (IPTG)-inducible lacUV5 promotor were transformed with respective expression libraries, and plated onto large square Q-trays. Individual colonies were robotically picked (QPix2^xt, Genetix) into suitable 384 well plates containing liquid LB medium supplemented with 100 μg/ml ampicillin, and cultivated overnight at 37 °C. Alternative route was to directly split appropriately diluted (as confirmed by plating onto LB-amp agar plates) transformation reactions (after 1 h recovery in antibiotics-free SOC medium) into 384 well plates via a programmable Flexdrop Precision Reagent Dispenser (Perkin Elmer). The next day, clones were robotically arrayed onto a 0.45 μm pore size PROTRAN™ nitrocellulose sheet (Whatman) cut in the form of the original masterplate, applying a 1 × 1, 5 × 1, 5 × 5, or 10 × 10 pattern (such that each clone or pool is gridded in 1, 5 or 25 or 100 replicates each). Following a 6 to 8 h incubation interval on top of solid LB at 30 °C, peptide expression was achieved by transferring these membrane-imprinted clones onto LB agar plates supplemented with 1 mM IPTG, followed by a 2 h incubation interval at 37 °C. Cells were then directly lysed via transfer into a Tris-buffered saline (TBS) solution containing 0.05% Tween-20 and 3% blotting-grade milk powder. Membranes were in refined dot-blot reminiscent procedure challenged with (horseradish peroxidase) HRP- or Europium labeled Streptavidin (in 1:1000 to 1:5000 dilution in TBS-0.05% Tween) for 1 h at RT, washed 3 times in TBS-0.05% Tween, and scanned with either a ChemiDoc imaging system (Quantity One® analysis software, BioRad) after exposure to Immobilon™ Western chemiluminescent substrate (Millipore, Merck), or directly with a prototypic SpectraMax® Paradigm® multi-mode detection Platform (ScanLater™ Western Blot Detection Cartridge, Molecular Devices).
Screening parameters were first of all optimized: signal-to-background ratios and realizable detection limits were assessed by analyzing the associations between published Strep-tagI and II peptides (as well as 12G linker spaced dimer derived thereof) and either commercially available HRP- or fluorescence labeled Streptavidin. […] We next further optimized E. coli growth times (from 0 to 24 h at 2 different temperatures), induction intervals, critical cell densities required, printing conditions, lysis and detection conditions, etc. (Fig. 2).

The target in assay [2] is T1, Streptavidin. The arrangement: method as in 4 sources, one per row (each row's own in cited_ref): ref see discussion section ([26], [33], [34]) ||| ref [35], [36] = [35]; PMID 26406477; doi:10.1371/journal.pone.0139137; 35. Fogen D Engineering Streptavidin and a Streptavidin-Binding Peptide with Infinite Binding Affinity and Reversible Binding Capability: Purification of a Tagged Recombinant Protein to High Purity vi || [36]; PMID 11722181; doi:10.1006/prep.2001.1515; 36. Keefe AD One-step purification of recombinant proteins using a nanomolar-affinity streptavidin-binding peptide, the SBP-Tag Protein Expr Purif 2001 23 3 440 446 10.1006/prep.2001.1515 11722181 ||| ref [37] = [37]; PMID 14680960; doi:10.1016/j.pep.2003.08.014; 37. Lamla T Erdmann VA The Nano-tag, a streptavidin-binding peptide for the purification and detection of recombinant proteins Protein Expr Purif 2004 33 1 39 47 10.1016/j.pep.2003.08.014 14680960 ||| ref [26], [33], [34] = [26]; PMID 8636976; doi:10.1006/jmbi.1996.0061; 26. Schmidt TG Molecular interaction between the Strep-tag affinity peptide and its cognate target, streptavidin J Mol Biol 1996 255 5 753 766 10.1006/jmbi.1996.0061 8636976 || [33]; PMID 10796988; doi:10.1016/S1050-3862(99)00033-9; 33. Skerra A Schmidt TG Applications of a peptide ligand for streptavidin: the Strep-tag Biomol Eng 1999 16 1–4 79 86 10.1016/S1050-3862(99)00033-9 10796988 || [34]; PMID 11910031; doi:10.1110/ps.4150102; 34. Korndorfer IP Skerra A Improved affinity of engineered streptavidin for the Strep-tag II peptide is due to a fixed open conformation of the lid-like loop at the binding site Protein Sci 2002 11 4. Particulars: equilibrium dissociation constant; ref [35], [36]; read-out: literature KD of SBP-tag, Streptavidin; cited from earlier work.

T1 sequence (P22629 25-183): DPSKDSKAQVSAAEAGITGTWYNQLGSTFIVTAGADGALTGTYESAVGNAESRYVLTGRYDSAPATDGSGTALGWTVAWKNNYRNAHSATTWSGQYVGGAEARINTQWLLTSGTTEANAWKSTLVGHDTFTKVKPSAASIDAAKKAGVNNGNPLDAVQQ

With “B5 dimer: B5 dimerized, spaced by an analogous 12 glycine linker (VSHPQAPFGGGGGGGGGGGGVSHPQAPF; not fully specified)”, the “effect of dimerisation on chip signal/affinity” value (“effect … on chip signal/affinity” below) in the assay with Streptavidin [1] is reported as “could not increase affinity by linear dimerization”.

For the substance “Dim12G: 12 glycine (G) linker spaced dimer resembling a published Twin-conformation; fusion of Strep-tagI and Strep-tagII monomers [reference compound]”, in the assay with Streptavidin [1], the “effect … on chip signal/affinity” value is recorded as “performs superior in comparison to a single monomer”. Moreover, the “binder strength on test peptide chip” value with Streptavidin [1] (in comparison to negative control, HRP- or fluorescence-labeled Streptavidin) is “higher affinity”.

For “F14.5 dimer: 12G–spaced dimeric F14.5 (CSGSYGSCGGGGGGGGGGGGCSGSYGSC; cysteine pairing not given here; also: fused to GST, end not given here)”, the “effect … on chip signal/affinity” value with Streptavidin [1] is recorded as “remained fairly constant; also recorded: could not increase affinity by linear dimerization”.

On to SBP-tag: 38 AA encompassing SBP-tag, for which the equilibrium dissociation constant (Kd) in the assay with Streptavidin [2] was 2.5 nM.

One may read the Kd as a measure of binding affinity in units of concentration.
